Assay: soluble on expression in E. coli; label from the status in PepcDB or PDB records

| Sequence | soluble on expression in E. coli |
| --- | --- |
| MAHHHHHHMNEAAPFCVAPQTWQGGLARYPVSQSHVWNNNIILQPEDIDVEVFNAMSQVESQYNKNEISVEDFEMLQLTFCLFTVNQSCYDLIPNGREIRVTQANAFEFFQRVHAAYDNMKQRPALNQPTQSNHRPRLRTSGTRLRLTGQDTDSLEWIRWTAQNNPAALAFHPDEPLRWAVVPRSRDFMIRVQPEGENTFVDPDHLTLFLDMLAVLLTEIERAISVFGYYPPNCVSAAPVECADEYSIYTSHTTRATRLPFPSQRVNSRGFSALHKFPMPVTAAAAAAAAAATEQNRRTVRRASSADLENQRALCSPTHDTGGLLAPFQEWNV | not soluble |
| MAHHHHHHMNIFKYYNIYLPLSVLGFVHIEVKSNNDVLNNSLSSISFNNYIFGRILSTNESADVVVEKPMEEKLNNTNENIDETHEESDPSNSTEETVKKCISNILDMTCDSRGHALILANNILRSQNVNEEVIILNEHDLLSQFLNGDVSNIFSDNKSIFKDLLDKDICSTYEVNFDQNSKCTLLTNKNDLQISEDILLLGNESEETNKLLDLWKRVMKNEESKLYLLKRNLYQQHLKLRNRSRLSHDKLNNILNECNVLVKKYNNNYDKTINNIFKEWSTVTPHNIFEFKLFIKACRLTWRKSIKNLHAEYTELLKRSFN | not soluble |
| MAHHHHHHMNRWRPFSKVRHFSGLTKLTNVREHQDEIISCIEKVKVVNPLVHCITNRVTTEKVANSLLAFGSSPAMIDNPKEVEQFAEIASCTYFNLGLHTSQVENIHVLDKMRQEKKKEEFILVIDPIAVGATQYRTNLIKDILVKCKPNVIKGNVAEIFYLDKGEFFGKGVDSNSSSSHTPNDIIASARNVALKYNCAVVVTSKADIIVSPCSKFVAQINCDLKILTKITGSGCSVGALCAAATSVIPQNPFIACTAATLIYKLAAFKAYQKETGPGTLSHQIIDNIYFYSNHPHFMNLQLVDVYAVS | soluble |
| MAHHHHHHMNSGYPGPSGITVGSPGLPPGSLGSPFPEQMTSAHSSDGMQGSNASQVPLTIHADVDQHSKSHSPTLTSGVEVLFATHQPPVAGVNAPWDEDDDWSTPGAPAQHPASVGAPAKPPLPPGNNAPPPILIAEQMNPGSPAEPHPTPVAMSPPPSSDGFIASSSRAGSPNCPPTPLEKPSAANVAKVDALMKQIASRTAAMDAATKEKEMKIVTAAQEYLKALMAKRGEEVMNAKAIHKEEQQVGAEKINEHKKSGDVWSAVGLLVDLQKPNQYSRSTEQMRTVLSALNATPAKK | soluble |
| MAHHHHHHMNSTLVHDLQQFRYVTAFTNPLPWPHVRRVSIPGLRHEAPDLPFMANLISALSDCDVSLHKIHEHNDTDILQLVQVLQACLQFSLWSQNILKEKLLEVQATHVAKGVSAQQLENLEKRYHALEGEMAALHKDRGMLSLGTANLRTSLAQMEKTIKRQERQLQQERGRNAQLVAKLEKALCARAVAAPLMSAPRLPPPRESQQRPAGNRHASAPTHRTTKATTVYDSSRLPTDNADAHRDSIASLTSDTSYGDSCLSAEVAARTHSHVPQPCDSLDPPPPPFLDWRTLVRYIIHEEQRASVWASNHASPTAARATADERGIASKEELMPAAQHPSKPAAALPAAATQRVTEAQLDSFFAGLTAGVTTEVVAYSRAVAARVEEMVRAATQQWIQETAEAQQALMAQVQAALGSLGAELAVHKQLKDATPSPALRTVAMPVATSDASDPHAQLAPFSPVLASSSVRNSAAAALPAPCQHAGNALVTLANAPPTNDSKPLSQPPQTSASPLTPSIDSSPPASFLNSFVMSGTALCHSTTGCEVLDGGSKTRTPLPDFSPDILRTPPTSEHGTAAAPLGTGSDGPRSVVSRADDADERDVDVDLLPLDSSSSDSSSGSSQRSDGTADGVAEVSHAYARVLAKPSSPPPMYPNKTPTAAAFVVQPAAPTHPSANRTLSLHFSTRSDVSEGSSYGSSQMLRETRAQLQALLEEEEAAGRAKTHR | not soluble |
| MAHHHHHHMPELSYMFSSVSEPRALGAADDGQVITSHSNSSNNNHNNFYPLYSASGSTKVSNYGGHFENNGNNIISMNNKSDVNANTCGDSGEKGNEGEKWIWVLDPLTRKLRVPLSQLVHTQATATTGTVPSLCISFLEGRCRHQWCRQAHVLPSAIPQLRHEALHAPTCCRLHDDPHDTSVLTSRFKYIRVV | not soluble |
| MAHHHHHHMPGIKIEEVISTTKRQRVAAHSHVKGLGLDADGSAKPSADGFVGQVKAREAAGIVVELTRSKKMAGRALLFAGPPGTGKTALALGIAKELGPKVPFCPMVGSEVYSAEVKKTEVLMENFRRAIGLRIKEQKEVYEGEVTELRAEETDNPLGGYGKSIAHVIVTLKSVKGSKQLKLDAAIYESLEKEKVSVGDVIYIEASTGAVKRVGRSDAYIGDHDLEADEYVPLPKGDVHKKKEIIQDVTLHDLDSANAKPNQGQDALSIVNSLMKQKKTEITEKLRHEINKVVNKYIDQGVAELVPGVLFIDEVHMLDIECFTFLNKALESTLAPVVIFATNRGSCRIRGTDIRSPHGIPTDLLDRLLIVRTTNYSIEEIVSIVDIRSQVEGVKVSDASLELLGQIGERTSLRYVVQLLTPALIIAETNGRTVIEAEDVMLVDGLFKDAKASAQLLHEHADEYVYQ | not soluble |
| MAHHHHHHMPGPGLLADGWFREENGQWPGQAMSFKVEEVLHDTPTKFQHLSIFETDPKGPWGTVMTLDGCIQLTDFDEFVYHEMLSHTPLCAHPDPVDVLIIGGGDGGVMREVLRHGTVKRCVLVDIDGDVIEASKKYFPQISSGFSDPRADVRVGDGVAFVREAASESFDVVIIDTTDPDGPAAELFGEKFYRDVLRILKPRGICCNQGESVWLNRNLIEGMADFIKNKVGFASVKYAMIYTPTYPCGSIGSLICSKVAGVDVTQPVRPVESMPFAGELKYYDSDVHKAAFVLPRFARHLNQNYS | soluble |
| MAHHHHHHMPHEDHKKYRVQREDLPAMPHFSDFNDPRFCGTTNKQKNGILAYYQWLHCIGNWGEEHSMCKKMRWYVERMMHETWLEKWEEKRALGHFDHTVLYGVKPWKEFEPLYQPVKKNRKGAYEYWLDRDFEPLYDVDAADWRERAPILHDMFVLGKKPVSE | soluble |
| MAHHHHHHMPLRACVSRTPAQARLVEVVSDYVQHLMDMQASRCAETSLDGHVVPPPNAKYPSHDFFCATHAPAISVKKYTDRLVTYMHCSPEAFVFAVAYLRRLVLSGFPMHLQSIHRLLLTAVLVALKCRDDVYYHMSFYAEVGGVTSKDLRIMEIRFLSDLIRFEGEVSLADYHVVMVDMMRVTERRMITNISGKTEMCNRCGMSAGAFTTSIPGDLGCLHCKGDAFAHSWTSECELFWGPLNSAFSLPSGEV | not soluble |
| MAHHHHHHMPQKPLFFIYFFFFQDTPDFGGVDTQTNNNNKKRGFTRDGRGKLAGGDAHSRRDRRMRLRGWGHTAFQTRLNGSRCWGSRGASSASQCVALRSASSSFSMSTSRSPFDAVYVINLNRRPDRWKFILRQLQRAGFREGEYERFTAVDGRAVDIQKAQACGLVSLLGILRLREEESRRIWGMDLNPAAVGCALSHVLLWATIAARRYHRVLVVEDDSLFPHDFQKKYDERMRHVPQDWELVYVSGLDTADQTSQLRVAEGVSRVPQMHRTTNCYVVTHHGARRLLELCLPMTYQLDTMMTMHAVSDPQSGVPHVTSPVCYTLQPPLVVQATRMGSDIQSSNGRDEQEEERARCRAAGWTTD | soluble |
| MAHHHHHHMQAQMMLGQALEHYAMMDFANLVLEQCWDICYDSQLTRPELAGGALPDVKAQKMDACARKCVARHFEVLTLLSATRELREKERMQGLPPGTLTSM | not soluble |
| MAHHHHHHMQDDKINSKDDISSSSSCEENDENKNILNPPNRTKMSKGERRARKMLVKLGLKAIPNVHKVIIKKSQKMVFAVSNVEVYKVEGTDSYVIFGDAKTDDITNSINNFIPENLPKDVDVPVEPEINFEAADKEEQKVKDLDDENVGDVSMDDVELIMSQTKCSRDMAISALRKNNNDFVQSIMELSG | soluble |
| MAHHHHHHMQLQPPKPIIKDFNVGISPLVQTRLPLVFAQGEYPPPMQDVLLVGISLKADFSAVWDWNTKHMYVACIGRYHTKSNMTVGGVNLQKTHDVTIFDKVLRSKEEAANWTLDNAKKYALENEELGSLAGAAVELMILYHPMRHYGYSPYYTVQPGKNPVMFQLPTAYEKRTEEDDKNAMCSRGYA | not soluble |
| MAHHHHHHMQMRWIVDAEERYRRSLTWKPAVGTIYDHKIVMKRGGSSHVQYRFDVDGKEYLGDRFRSGGVHKEEMVSNPALLGAGTQLVVYYNPSDPSESAIKLQTDRAAESAFLVGITISLLVAYRSVRCETILPNMFYSFLAVNRRLGGITGLREARTHSKQKMKYGKGTGAI | not soluble |
| MAHHHHHHMQQENRHLSSADLFKKFTLQNVAQIANISNKEQSQIRGELTEQYPLLADFWEDIMPKKPDIMLVRCHDQVHCVTLVSSQPEVLFFRHHNSPYIPHLKLLHKYPFILPRQQVDIGGCKYVVSGANVMCPGLTSEGGYITPGLAAGAIVAIHVEQKEHAIAVGRMLMSSEEIERVNNGPGIENIHHLGDGLWMNRVLSSSHIGAR | not soluble |
| MAHHHHHHMQRHSSHLLLLLVAVVIPVCSEDKLDFTKLRDPFDMDEINRKLQEKVADDDPVQKAMPDPMDPKFRAPLRCSACGAVIEHAVRLLRPIIERQSERAARSGGVLPADALPKEYEMVDIFENLCGEVGRLYGLEVEKDKKRPTLRFSKSFGVSRLQGAWMPSFLTSTCEGVLDVEGEEKLAAMILGVARSEAEAGRGKVISMNPDQGIVDKVREMVCTKWEESAKGCDAYGVAIDPRETDNDDGAEEAASDL | soluble |
| MAHHHHHHMQRNEVESLEGLVLLVQLRVLVAHHNAVTSLRPIAVLPALSFIDARSNKIEDVNPMEDLPCDSLKYLALLDNPCCNGDRSVDREQIMKACPKLAMLDDVPRDPSAEKVTGSEEEENSDEEDGCKRWHAVSETPTGCSKGVSSRIHLYRSLKMCEPLPVSVPSLEPIPVTSQDIDTNRVTTTTDRLCEQLRHRSSAIRRMAGHHALGQTEVSDPVWDFGNHVENDGDSEHRSNGRRRLDSPESTLSLTLPPELEQERATKARLYDDIRFALQADDRRLRQLAGVVWDDVDKVLSTRQALVGHRRHRMHTAHQQPSDAYAKSLEILKHENRVANLDKYRKQENANAPQ | not soluble |
| MAHHHHHHMQSALRSFSEAAVGLGTSQEKLAAFIAFTNQEKLRVPQLALLRELRRQLVAEEAIAERGRHHQQPDYGVSKRSSNASAAYQDSGDQNAHLSDLRKVNVLCSSKTEKSLQCSKTLSLNHQRGDSTTGAHKTRFQSPRFSSLKSVPFAQAGAANDEYDEDIRGFGARDFAPTPTPSGKLPYKPRDVCLLNSSYFANRSIRSDGSNPCGAPLPTSSPGTPSPSWRGAMTATAFAKLPAPSQQPLLAVDSSLGTVIDVDSEFSLVREAEDTAESRFAPKQDLSIVSMNSSQLELLNIAELAASSSEAALAQPPAAAVLTGIREKVADGSLSKHTVTLFHESNEKRSRGVAASTAAEVAVASVTASIAERKPAPSSQPSTQRGLCGYTNPGNFASLLVPNVLARPVSPPAERTVAPFSLRVAPASTSPSDKEKAVTLEQQEGMASTTAVTIGSTDSAGPAAASVASRLPSPPLITQAEENDGFVYYCANPSHSVIDSYAGRRKLLAVTVKL | not soluble |
